T1: human CD73 (CHOK1-huCD73-3F4 cells) (Homo sapiens, UniProt P21589)
T1 construct: host or cells: CHOK1-huCD73-3F4 (CHO-K1 clone)
T1 sequence (P21589 27-549): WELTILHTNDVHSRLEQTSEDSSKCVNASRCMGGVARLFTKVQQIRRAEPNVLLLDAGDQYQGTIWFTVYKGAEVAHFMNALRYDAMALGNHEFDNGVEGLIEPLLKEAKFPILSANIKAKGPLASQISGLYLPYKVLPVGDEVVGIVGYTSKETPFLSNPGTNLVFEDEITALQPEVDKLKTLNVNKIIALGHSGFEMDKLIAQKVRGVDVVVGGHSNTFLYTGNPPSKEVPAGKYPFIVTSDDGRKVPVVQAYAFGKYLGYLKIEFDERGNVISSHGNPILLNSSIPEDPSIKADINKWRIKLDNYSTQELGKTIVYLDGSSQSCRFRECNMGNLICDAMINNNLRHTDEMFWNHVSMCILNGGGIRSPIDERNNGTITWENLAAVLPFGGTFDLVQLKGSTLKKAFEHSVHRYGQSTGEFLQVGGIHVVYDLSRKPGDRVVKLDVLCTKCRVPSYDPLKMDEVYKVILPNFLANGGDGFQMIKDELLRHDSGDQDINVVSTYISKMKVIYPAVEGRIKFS


Tests used:
[1] = molecular target: T1, human CD73 (CHOK1-huCD73-3F4 cells); assay: Cell binding activity to human CD73 antigen expressed on membrane (flow cytometry); format: cell-based; conditions: FACS, FIG. 2
Protocol: The binding activity of the antibody-drug conjugate 1 and the antibody-drug conjugate 2 prepared in Example 1 and the 900698 naked antibody to cells expressing human CD73 (CHOK1-huCD73-3F4, Huabo Biopharm) was assayed.
All antigen-binding proteins were diluted to 30 μg/mL with a solution of 1% BSA in PBS (1% BSA/PBS), followed by a 3-fold dilution across 10 gradients. The diluted proteins were each added at 20 μL per well to a 96-well U-bottom plate, with a negative control (adding only 1% BSA/PBS) set up simultaneously. A suspension of cells expressing human CD73 (CHOK1-huCD73-3F4, Huabo Biopharm) in the logarithmic growth phase was taken and centrifuged (1000 rpm×5 min), and then the culture medium was discarded. The cells were resuspended in 1% BSA/PBS until the viable cell density was 1×10^6 cells/mL, then added at 20 μL (2×10^4 cells) per well to the 96-well U-bottom plate containing the anti-CD73 antigen-binding proteins, and incubated at room temperature for reaction for 30 min. The reacted cells in the 96-well U-bottom plate were resuspended in 1% BSA/PBS and centrifuged (300 g×3 min), and then the supernatant was discarded. This washing process was performed once. Then, a 1:200 dilution of PE-goat anti-human-Fc (Jackson ImmunoResearch, #109-115-098) was added, and the cells were incubated in the dark at room temperature for reaction for 15 min. The reacted cells in the 96-well U-bottom plate were further resuspended in 1% BSA/PBS and centrifuged (300 g×3 min), and then the supernatant was discarded. This washing process was performed 3 times. Finally, the cells were resuspended in 100 μL of 1% BSA/PBS per well, and the fluorescence intensity in the PE channel was detected using a flow cytometer (BD, #Canto II).
The results for the binding activity of the antibody-drug conjugate 1, the antibody-drug conjugate 2, and the 900698 naked antibody are shown in FIG. 2 (represented as 1-3 in FIG. 2, respectively).

[2] = tested on: MDA-MB-231 human breast cancer cells; assay: MDA-MB-231 triple-negative breast cancer CDX mouse efficacy model (Example 8); format: in vivo, NPG mice; conditions: for inhibition of growth of MDA-MB-231 breast cancer: 2.5 and 5 mg/kg i.p. BIW, 8 doses, FIG. 8; for relation of anti-tumor effect to administration dose: 2.5 vs 5 mg/kg i.p. BIW; for inhibitory effect on tumor growth compared with 900698 and Oleclumab: antibodies at 5 mg/kg, i.p. BIW
Protocol: NPG mice were used to establish an MDA-MB-231 triple-negative breast cancer animal model for assaying the efficacy of the test antibodies. The MDA-MB-231 human breast cancer cells used in this example were incubated in an L-15 medium supplemented with 10% FBS in an incubator at 37° C. without CO2. Before continuous cell culturing for ten generations, about 5.0×10^6 MDA-MB-231 cells were suspended in 100 μL of PBS and then mixed uniformly with an equal volume of Matrigel. The mixture was then inoculated by subcutaneous injection into NPG humanized mice on the right side of the back near the axilla, with an inoculation volume of about 200 μL. The mice were anesthetized with 2%-5% isoflurane prior to the inoculation. On the day of inoculation, 1.0×10^7 PBMCs (100 μL) were injected via the tail vein. When the tumors grew to an average size of about 50-80 mm^3, the […] tumor-bearing mice were randomly divided into 7 groups of 6 based on tumor volume and body weight. […] Oleclumab is an anti-CD73 monoclonal antibody developed by AstraZeneca, currently in Phase 2 clinical trials. The amino acid sequence of the heavy chain of 900201 is as set forth in SEQ ID NO. 43, and the amino acid sequence of the light chain of 900201 is as set forth in SEQ ID NO. 44.

| Molecule | binding activity (affinity) for cells expressing human CD73 [1] | inhibition of growth of MDA-MB-231 breast cancer [2] | relation of anti-tumor effect to administration dose [2] | inhibitory effect on tumor growth compared with 900698 and Oleclumab [2] |
| --- | --- | --- | --- | --- |
| Antibody-drug conjugate 1: 900698 antibody cysteine-conjugated to SN-38 via Mc-VC-PAB-DMEDA-PEG linker, DAR about 7.8 (conjugate) VH: QVQLVESGGGLVKPGGSLRLSCAASGFTFSKYAMSWIRQAPGKGLEWVAEISSGGGYINYADSVKGRFTISRDNAKNSLYLQMNSLRAEDTAVYYCARAIYYYGSSYNYYAMDYWGQGTTVTVSS VL: DIQMTQSPSSLSASVGDRVTITCRASQDVGTAEAWYQQKPGKAPKLLIYWASTRHTGVPSRFSGSGSGTDFTLTISSLQPEDFATYYCQQYSSYPLTFGQGTKLEIK | good affinity | significantly inhibit the growth | positively correlated with the administration dose | significantly superior |
| Antibody-drug conjugate 2: 900698 antibody cysteine-conjugated to SN-38 via MP2-VC-PAB-DMEDA-PEG linker, DAR about 7.8 (conjugate) VH: QVQLVESGGGLVKPGGSLRLSCAASGFTFSKYAMSWIRQAPGKGLEWVAEISSGGGYINYADSVKGRFTISRDNAKNSLYLQMNSLRAEDTAVYYCARAIYYYGSSYNYYAMDYWGQGTTVTVSS VL: DIQMTQSPSSLSASVGDRVTITCRASQDVGTAEAWYQQKPGKAPKLLIYWASTRHTGVPSRFSGSGSGTDFTLTISSLQPEDFATYYCQQYSSYPLTFGQGTKLEIK | good affinity | significantly inhibit the growth | positively correlated with the administration dose | significantly superior |
| 900698: anti-CD73 antibody, VH SEQ ID NO: 35, VL SEQ ID NO: 34 (antibody, V domains shown, 900696, 900698 (VH); 900695, 900698 (VL)) VH: QVQLVESGGGLVKPGGSLRLSCAASGFTFSKYAMSWIRQAPGKGLEWVAEISSGGGYINYADSVKGRFTISRDNAKNSLYLQMNSLRAEDTAVYYCARAIYYYGSSYNYYAMDYWGQGTTVTVSS VL: DIQMTQSPSSLSASVGDRVTITCRASQDVGTAEAWYQQKPGKAPKLLIYWASTRHTGVPSRFSGSGSGTDFTLTISSLQPEDFATYYCQQYSSYPLTFGQGTKLEIK | good affinity | – | – | – |
